The target of the experiment is pre-fusion RSV F DS-Cav1 (human respiratory syncytial virus (hRSV A strain)). In words: SEC; UPLC on a BEH200 size exclusion chromatography column (Waters Acquity UPLC); final purified protein after thrombin cleavage, 10 mM potassium phosphate pH 7.2. (Size exclusion chromatography separates by hydrodynamic size, large species first.)

The record followed here is article PMC5651886.

The stoichiometry N is the number of molecules, sites or subunits per partner or assembly.

“pre-fusion RSV F DS-Cav1 (natural protein)” had a stoichiometry N of 3.
